Reference: US20170258835A1

Key:
CD19 = CD19 (UniProt P15391); assay: cell-based or functional assay
EGFRviii = EGFRviii (UniProt P00533)
HLA-A2/NY-ESO-1 = assay: cell-based or functional assay

Chain of CD19 (P15391 20-556 limits assumed): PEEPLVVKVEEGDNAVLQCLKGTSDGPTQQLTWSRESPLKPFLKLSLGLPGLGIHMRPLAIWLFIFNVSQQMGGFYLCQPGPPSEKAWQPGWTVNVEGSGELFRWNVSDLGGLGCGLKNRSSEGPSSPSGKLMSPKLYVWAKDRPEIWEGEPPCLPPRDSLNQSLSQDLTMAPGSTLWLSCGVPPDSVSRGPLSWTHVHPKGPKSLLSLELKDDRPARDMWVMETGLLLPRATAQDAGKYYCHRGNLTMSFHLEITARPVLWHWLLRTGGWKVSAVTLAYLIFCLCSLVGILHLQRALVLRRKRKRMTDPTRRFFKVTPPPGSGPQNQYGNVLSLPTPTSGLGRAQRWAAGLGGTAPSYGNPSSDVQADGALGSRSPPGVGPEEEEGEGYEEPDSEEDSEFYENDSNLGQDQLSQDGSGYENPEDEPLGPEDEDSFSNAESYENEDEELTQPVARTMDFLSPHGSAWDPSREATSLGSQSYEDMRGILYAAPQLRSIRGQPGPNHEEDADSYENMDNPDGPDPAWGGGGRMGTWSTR

**Q.** With “Blinatumomab (secreted by T cells electroporated with Blinatumomab Bis-RNA) (bispecific antibody)” as the substance, how does the CD107a up-regulation, stimulated with K562-CD19 (CD19) read?
**A.** The CD107a up-regulation, stimulated with K562-CD19 was 81%.

**Q.** And the IFN-gamma ELISA; lowest dose of CD19 mRNA electroporated into K562 that was recognized (CD19)?
**A.** The IFN-gamma ELISA; lowest dose of CD19 mRNA electroporated into K562 that was recognized was 0.001 µg.

**Q.** How did the CD107a+ share of CD8+ T cells after stimulation with K562-EGFRvIII (EGFRviii) turn out when MR1-BBZ was run?
**A.** Its CD107a+ share of CD8+ T cells after stimulation with K562-EGFRvIII is 51.8%.

**Q.** For NY-ESO-1 (1G4) TCR alpha and beta, which CD8/CD107a double positive cells, stimulated with Nalm6-ESO (Affi-epsilon co-electroporated, EP3 to EP6) (HLA-A2/NY-ESO-1) is on record?
**A.** The CD8/CD107a double positive cells, stimulated with Nalm6-ESO (Affi-epsilon co-electroporated, EP3 to EP6) was 49.5 to 53.3%.
